From the supplement of paper PMC10126150
± gives the standard deviation of the averaged measurements.

System: ATP
Assay: switch fluorescence ratio, 500 uM ATP over buffer (Cy3 cluster intensity, sum of 5 cycles each) (fold (ratio)); higher = stronger signal-on switching upon ATP binding; sequences stand for … in TCGTCGGCAGCGTCAGATGTGTATAAGAGACAGTTTTTTTTTTTTTTTTTTTTTTTTT…TC
Conditions: aptamer strand: ATP DNA aptamer (quencher-CACCTGGGGGAGTATTGCGGAGGAAGG + anchor), 100 nM annealed; ATP concentration: 500 uM
Procedure, shortened: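 Values give the fluorescence ratio for each switch-domain sequence, averaged from per-cluster ratios of summed target-cycle to summed buffer-cycle Cy3 intensity. The Cy3-labelled switching-strand clusters sat on a modified Illumina MiSeq flow-cell, were annealed to 100 nM quencher-labelled ATP aptamer, and were imaged in selection buffer, then after 15 min with 500 uM ATP at 22 °C. Five cycles ran with NaOH stripping and re-annealing between them, and clusters outside 100-1000 RFU were excluded.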
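Further: ATP exposure 15 min at 22 °C before imaging.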

Sequence | switch fluorescence ratio
CAGGAAGGGG | 1 ± 0.032
CAGGACTTGT | 0.969 ± 0.02
CAGGACTTTT | 1 ± 0.0083
CAGGAGACTA | 0.9979 ± 0.0094
CAGGAGGGAG | 1.01 ± 0.011
CAGGAGGGCA | 1.042 ± 0.0049
CAGGATAACT | 1 ± 0.027
CAGGATGCGA | 1.05 ± 0.016
CAGGATGTAT | 0.9852 ± 0.0029
CAGGATTAAA | 0.959 ± 0.029
CAGGATTGTT | 1.02 ± 0.04
CAGGCCTCTT | 0.9943 ± 0.0035
CAGGCCTGAC | 1.02 ± 0.061
CAGGCGTTAG | 1 ± 0.064
CAGGCTCTTT | 0.978 ± 0.036
CAGGGAAAGA | 1 ± 0.011
CAGGGAAGGG | 1.01 ± 0.049
CAGGGATGGA | 0.981 ± 0.013
CAGGGCAGCG | 1.02 ± 0.04
CAGGGCGGGG | 0.979 ± 0.037
CAGGGCTATG | 1.01 ± 0.016
CAGGGCTTAG | 1.01 ± 0.035
CAGGGGAAAT | 0.993 ± 0.029
CAGGGGCAAT | 2.7 ± 0.12
CAGGGGCGTG | 0.9921 ± 0.0079

Sequence | switch fluorescence ratio
CAGGGGGATT | 1.03 ± 0.042
CAGGGGGGAC | 1 ± 0.022
CAGGGGGTCA | 0.982 ± 0.015
CAGGGGTACG | 0.991 ± 0.042
CAGGGGTGTG | 0.996 ± 0.0076
CAGGGGTTTT | 1.32 ± 0.54
CAGGGTAGAG | 1 ± 0.043
CAGGGTCGGG | 0.966 ± 0.035
CAGGGTGAAT | 0.9909 ± 0.0056
CAGGGTGAGT | 1.01 ± 0.022
CAGGGTGGGG | 1.03 ± 0.048
CAGGGTTCCG | 1.17 ± 0.28
CAGGTAAGGC | 1.04 ± 0.033
CAGGTAAGGT | 1.014 ± 0.0035
CAGGTACATA | 1.055 ± 0.0086
CAGGTAGGTT | 1.02 ± 0.068
CAGGTATAAG | 1.01 ± 0.061
CAGGTATTAC | 1.11 ± 0.026
CAGGTCCAGT | 0.993 ± 0.02
CAGGTCTTGG | 1.01 ± 0.03
CAGGTGCGTT | 1.58 ± 0.028
CAGGTGGTGG | 1.02 ± 0.02
CAGGTGTCTG | 1.13 ± 0.032
CAGGTTCTAC | 1.015 ± 0.0032
CAGGTTGGTT | 1 ± 0.027

Sequence | switch fluorescence ratio
CAGGTTTGTG | 1.01 ± 0.018
CAGGTTTTTG | 0.983 ± 0.028
CAGTAAAAAG | 1.03 ± 0.025
CAGTAAGATC | 1.026 ± 0.0056
CAGTACTCTT | 1.01 ± 0.03
CAGTAGGCAG | 0.95 ± 0.016
CAGTAGTTGC | 1.091 ± 0.0086
CAGTATCGCG | 0.989 ± 0.005
CAGTATGGGG | 0.9664 ± 0.0013
CAGTATGTTT | 0.974 ± 0.044
CAGTCATTTT | 0.984 ± 0.031
CAGTCCCACG | 1.021 ± 0.0053
CAGTCCGTTT | 1.02 ± 0.012
CAGTCGGTTT | 1.013 ± 0.0088
CAGTCGTCCT | 1.028 ± 0.0019
CAGTCTAAGA | 1.03 ± 0.056
CAGTCTAAGT | 1.02 ± 0.014
CAGTCTTCTT | 1.02 ± 0.026
CAGTCTTTTT | 1.03 ± 0.022
CAGTGACTGT | 0.98 ± 0.034
CAGTGAGAAC | 1.01 ± 0.025
CAGTGATAAA | 1.008 ± 0.0066
CAGTGATGGA | 1.007 ± 0.0046
CAGTGATTTA | 0.981 ± 0.019
CAGTGCATTG | 1.01 ± 0.023

Sequence | switch fluorescence ratio
CAGTGCGGCT | 1.007 ± 0.0046
CAGTGGAGCG | 0.964 ± 0.058
CAGTGGCTTC | 1.01 ± 0.023
CAGTGGGGTA | 0.966 ± 0.012
CAGTGTGAAT | 1 ± 0.021
CAGTGTTA | 0.985 ± 0.064
CAGTGTTGGG | 1.002 ± 0.0016
CAGTTAAAAA | 1.03 ± 0.012
CAGTTAGATT | 1.01 ± 0.028
CAGTTATCGT | 0.986 ± 0.016
CAGTTATGGC | 0.999 ± 0.026
CAGTTCAGTA | 0.992 ± 0.03
CAGTTCATCG | 1.03 ± 0.025
CAGTTCTGGG | 0.9872 ± 0.0097
CAGTTCTGTA | 1.01 ± 0.038
CAGTTGCGAG | 0.983 ± 0.042
CAGTTGCTCA | 1.012 ± 0.0097
CAGTTGGGAT | 0.969 ± 0.026
CAGTTGGTTT | 0.97 ± 0.02
CAGTTTACCG | 1.03 ± 0.019
CAGTTTCGTT | 1.02 ± 0.037
CAGTTTGTTA | 0.994 ± 0.036
CAGTTTTGAT | 0.998 ± 0.019
CAGTTTTGGG | 0.9713 ± 0.0016
CATAAAGTAG | 1.02 ± 0.014
